Test results from paper PMC9458432 (Nucleic Acids Research, 2022).
Where a chain is given by its changes, count along the chain named.

Experiments:
ΔFOSB Cys172Ser homomers = target: T1, ΔFOSB Cys172Ser homomers (Mus musculus, UniProt P13346, C172S); assay: FP dose-response against ΔFOSB Cys172Ser homomers; assay type: binding; conditions: 50 nM TMR-cdk5, 280 nM protein, compound 0–200 μM
T1 sequence (P13346 2-237 isoform P13346-2 C172S): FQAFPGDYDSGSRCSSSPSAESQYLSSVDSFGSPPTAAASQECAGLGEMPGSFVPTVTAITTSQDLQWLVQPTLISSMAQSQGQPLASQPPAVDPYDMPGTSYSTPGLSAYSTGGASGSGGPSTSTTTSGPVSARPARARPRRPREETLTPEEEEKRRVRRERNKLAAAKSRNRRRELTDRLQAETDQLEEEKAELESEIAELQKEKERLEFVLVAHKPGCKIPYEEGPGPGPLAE

[1] = target: T2, ΔFOSB Cys172Ser/JUND heterodimers (Mus musculus, UniProt P13346+P15066, C172S); assay: FP dose-response against ΔFOSB Cys172Ser/JUND heterodimers; assay type: binding; conditions: 50 nM TMR-cdk5, 280 nM protein, compound 0–200 μM
T2 sequence (P13346 2-237 isoform P13346-2 C172S): T1 sequence (P13346 2-237 isoform P13346-2 C172S)
T2 sequence (P15066 2-341): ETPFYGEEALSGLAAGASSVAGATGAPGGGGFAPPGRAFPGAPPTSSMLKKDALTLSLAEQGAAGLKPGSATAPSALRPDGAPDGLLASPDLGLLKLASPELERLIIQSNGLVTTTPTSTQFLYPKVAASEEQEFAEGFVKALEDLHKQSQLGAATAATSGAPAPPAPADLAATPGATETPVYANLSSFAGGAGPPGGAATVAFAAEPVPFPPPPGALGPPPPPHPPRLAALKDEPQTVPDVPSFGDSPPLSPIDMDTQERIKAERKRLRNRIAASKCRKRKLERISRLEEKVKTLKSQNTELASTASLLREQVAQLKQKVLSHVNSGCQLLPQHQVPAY

[2] = target: T3, ΔFOSB (N(His)6-ΔFOSB);JUND (N(His)6-JUND) (mouse;mouse, UniProt P13346-2;P15066 2-237;2-341, |); assay: EMSA
T3 sequence 1: T1 sequence (P13346 2-237 isoform P13346-2 C172S) with S171C
T3 sequence 2: T2 sequence (P15066 2-341)

[3] = target: T3, ΔFOSB (N(His)6-ΔFOSB);JUND …; assay: fluorescence polarization
ΔFOSB (N(His)6-ΔFOSB) = target: T4, ΔFOSB (N(His)6-ΔFOSB) (mouse, UniProt P13346-2 2-237); assay: fluorescence polarization
T4 sequence: T1 sequence (P13346 2-237 isoform P13346-2 C172S) with S171C

ΔFOSB Cys172Trp = target: T5, ΔFOSB Cys172Trp (mouse, UniProt P13346-2 2-237, C172W); assay: fluorescence polarization
T5 sequence: T1 sequence (P13346 2-237 isoform P13346-2 C172S) with S171W

## O=C(O)CCc1cc(C(=O)c2ccc(OC3CCCC3)cc2O)ccc1OCc1ccc2c(=O)[nH]oc2c1 [Compound T5224]
ΔFOSB Cys172Ser homomers
  Disruption of DNA binding to ΔFOSB Cys172Ser homomers: similarly well as to the wild-type species
[1]
  Disruption of DNA binding to ΔFOSB Cys172Ser/JUND heterodimers: similarly well as to the wild-type species

B1: BIO-cdk5 (dsDNA)
DNA 1: CGTCGGTGACTCAAAACAC
DNA 2: GTGTTTTGAGTCACCGACG
[2]
  binding result: binds

B2: TMR-cdk5 (dsDNA)
DNA 1: CGTCGGTGACTCAAAACAC
DNA 2: GTGTTTTGAGTCACCGACG
[3]
  binding result: binds
ΔFOSB (N(His)6-ΔFOSB)
  binding result: binds
ΔFOSB Cys172Trp
  binding result: binds
